Reference: publication PMC5611513, “Structure-Based Prototype Peptides Targeting the Pseudomonas aeruginosa Type VI Secretion System Effector as a Novel Antibacterial Strategy” (Frontiers in Cellular and Infection Microbiology, 2017)
pKd: −log10 of the molar value.

Columns and labels:
Experiment in all cases: ITC
[1] = biological target: TplEi E219A (Pseudomonas aeruginosa) (UniProt Q9I3K3)
[2] = biological target: TplEi S215A (Pseudomonas aeruginosa) (UniProt Q9I3K3)
[3] = biological target: TplEi R266A (Pseudomonas aeruginosa) (UniProt Q9I3K3)
[4] = biological target: TplEi (Pseudomonas aeruginosa) (UniProt Q9I3K3)

Row | Substance | pKd [1] | pKd [2] | pKd [3] | fold reduction in binding affinity against the wild-type peptide [4]
1 | A peptides (“L” peptide, TplE 82-108 plus EQVEVDD) (from UniProt Q9I3K2 82-115) | 4.45 | 5.11 | 4.33 | 
2 | “L” peptide W92A (from UniProt Q9I3K2 82-115) |  |  |  | 500 fold
